Experimental data from patent US20110319600A1.

B1: B-3 monoclonal antibody (antibody, V domains shown)
VH: QVKLVQSGGGAVQPGRSLRLSCEASGFDFTVYDIHWVRQAPGKGLEWVASIWHNGGKAYYADSVKGRFTVSRDNPQKTVYLQMSGLRPEDTATYYCAREFPFMGIYDYGMDAWGQGTTVTVAS
VL: QSVLAQPPSASGTPGQRVIISCSGTSSNIGGNSVNWYQHPPGAAPRLLIYTTDQRPSGVPDRFSGSKSGTSASLAISGLQSEDEADYYCEVWDDSLTRPVFGGGTKLTVL
B2: E-2 monoclonal antibody (antibody, V domains shown)
VH: QVQLQESGPGLVKPLQTLSLTCVVSGDSISRGGYYWSWVRQPPERGLEWIGDIYHSGSTNYNPALKSRTTISVETSKNQFSLQLNSVTAADTAVYYCAREPPPDYSDYKVGKGYFDYWGQGALVTVSS
VL: EIVLAQSPATLSLSPGERATLSCRASETVDTYLAWYQQKPGQAPRLLINDASKRATGIPARFSGSGSGTDFTLTISGLEPEDFAVYWCQQHSNWPPTFGQGSRLEIK

Tests used:
[1] = biological target: hemagglutinin (HA) of human influenza B virus, B/Mie/1/93 strain (human influenza B virus, B/Mie/1/93 strain)
[2] = biological target: hemagglutinin (HA) of human influenza B virus, B/Malaysia/2506/04 strain (human influenza B virus, B/Malaysia/2506/04 strain)
[3] = biological target: hemagglutinin (HA) of human influenza B virus, B/Shanghai/261/02 strain (human influenza B virus, B/Shanghai/261/02 strain)
[4] = biological target: hemagglutinin (HA) of human influenza B virus, B/Victoria/2/87 strain (human influenza B virus, B/Victoria/2/87 strain)
hemagglutinin (HA) of human influenza B virus, B/Victoria/2/87 strain (human influenza B virus, B/Victoria/2/87 strain), sequence (P22092 16-585): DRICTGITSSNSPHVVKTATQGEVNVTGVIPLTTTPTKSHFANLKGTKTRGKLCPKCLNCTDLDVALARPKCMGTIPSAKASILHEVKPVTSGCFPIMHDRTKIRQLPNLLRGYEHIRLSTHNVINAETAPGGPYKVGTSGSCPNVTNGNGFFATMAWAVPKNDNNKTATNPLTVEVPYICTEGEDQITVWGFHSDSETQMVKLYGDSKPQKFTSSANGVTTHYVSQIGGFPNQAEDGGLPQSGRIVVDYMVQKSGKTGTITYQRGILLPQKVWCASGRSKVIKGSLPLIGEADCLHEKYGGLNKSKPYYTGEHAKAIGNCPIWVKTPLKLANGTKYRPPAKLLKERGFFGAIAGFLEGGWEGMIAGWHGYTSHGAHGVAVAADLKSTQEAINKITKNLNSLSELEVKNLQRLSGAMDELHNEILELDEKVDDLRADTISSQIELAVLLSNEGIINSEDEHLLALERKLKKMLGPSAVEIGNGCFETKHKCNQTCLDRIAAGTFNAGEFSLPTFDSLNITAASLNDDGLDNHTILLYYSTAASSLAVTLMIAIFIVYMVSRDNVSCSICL

[5] = biological target: hemagglutinin (HA) of human influenza B virus, B/Malaysia/2506/04 strain (human influenza B virus, B/Malaysia/2506/04 strain); test: cell-based or functional assay

Row | Binder | staining activity [1] | staining activity [2] | staining activity [3] | staining activity [4] | HI activity [5] | Neutralization activity (% inhibition) [5] [% inhibition]
1 | B1 | 32 | 8 | 32 | 32 | < 2 | 31.7
2 | B2 | 128 | 128 | > 128 | > 128 | < 2 | 37.8
